Test results as given in PMC11122685, “An interaction network in the polymerase active site is a prerequisite for Watson-Crick base pairing in Pol γ”.

Target: Pol gamma A R853A exo-;Pol gamma B deltaI4 (human;human?, UniProt P54098;Q9UHN1 1-1239;1-485, D198A;E200A;R853A|del136-182)
Test: X-ray crystal structure (3.4 A); dCTP (2 mM), 10 mM CaCl2; ternary complex, dCTP not paired with template dG; Crystal: 63.5 uM protein, 114.3 uM DNA, 10 mM CaCl2, 2 mM dCTP; well 100 mM MES pH 6.0, 150 mM NaCl, 10 mM CaCl2, 50 mM BME, 3% PEG-8000, 1-8% sucrose, 2% Jeffa
Conditions: protein: recombinant;recombinant; (Ni-NTA purified); copies: 1;2; 5' overhang 4 nt (template strand), recessed primer 3' end

Chain of Pol gamma A R853A exo-;Pol gamma B deltaI4 (P54098 whole entry D198A/E200A/R853A, chain 1 of 2): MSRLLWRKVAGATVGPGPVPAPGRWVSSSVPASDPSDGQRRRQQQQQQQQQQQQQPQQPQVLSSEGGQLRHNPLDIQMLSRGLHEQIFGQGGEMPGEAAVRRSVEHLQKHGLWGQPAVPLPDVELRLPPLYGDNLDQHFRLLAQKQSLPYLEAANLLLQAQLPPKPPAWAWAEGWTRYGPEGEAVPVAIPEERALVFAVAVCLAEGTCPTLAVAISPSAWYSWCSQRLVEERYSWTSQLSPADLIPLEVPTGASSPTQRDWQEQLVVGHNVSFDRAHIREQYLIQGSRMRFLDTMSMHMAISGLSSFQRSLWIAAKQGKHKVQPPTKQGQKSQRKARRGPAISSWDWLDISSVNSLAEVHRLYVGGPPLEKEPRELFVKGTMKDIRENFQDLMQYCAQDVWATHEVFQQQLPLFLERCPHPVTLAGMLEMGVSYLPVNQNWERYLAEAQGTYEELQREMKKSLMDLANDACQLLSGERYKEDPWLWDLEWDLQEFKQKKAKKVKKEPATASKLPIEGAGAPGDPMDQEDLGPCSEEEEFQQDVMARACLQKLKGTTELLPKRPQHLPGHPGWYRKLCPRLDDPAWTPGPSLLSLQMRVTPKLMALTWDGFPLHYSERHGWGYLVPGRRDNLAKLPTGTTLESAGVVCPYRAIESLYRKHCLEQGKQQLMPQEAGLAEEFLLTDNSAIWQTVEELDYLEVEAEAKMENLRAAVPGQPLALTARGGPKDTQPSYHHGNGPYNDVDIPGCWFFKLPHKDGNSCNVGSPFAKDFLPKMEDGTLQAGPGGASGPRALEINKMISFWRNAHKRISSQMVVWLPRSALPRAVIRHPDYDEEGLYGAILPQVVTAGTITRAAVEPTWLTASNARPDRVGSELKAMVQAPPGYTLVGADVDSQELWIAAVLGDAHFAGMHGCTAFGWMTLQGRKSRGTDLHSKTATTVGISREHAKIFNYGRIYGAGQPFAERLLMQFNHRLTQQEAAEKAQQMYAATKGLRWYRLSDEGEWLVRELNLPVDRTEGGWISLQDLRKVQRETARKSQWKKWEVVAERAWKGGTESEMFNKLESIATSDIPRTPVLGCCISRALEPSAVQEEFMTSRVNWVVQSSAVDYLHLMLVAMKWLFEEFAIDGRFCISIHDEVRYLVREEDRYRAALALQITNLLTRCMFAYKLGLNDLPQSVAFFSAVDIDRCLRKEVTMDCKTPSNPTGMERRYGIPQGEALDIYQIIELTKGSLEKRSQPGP
Chain of Pol gamma A R853A exo-;Pol gamma B deltaI4 (Q9UHN1 other isoform, or with tags, fused parts or gaps D198A;E200A;R853A|del136-182 | R853A R853A, chain 2 of 2): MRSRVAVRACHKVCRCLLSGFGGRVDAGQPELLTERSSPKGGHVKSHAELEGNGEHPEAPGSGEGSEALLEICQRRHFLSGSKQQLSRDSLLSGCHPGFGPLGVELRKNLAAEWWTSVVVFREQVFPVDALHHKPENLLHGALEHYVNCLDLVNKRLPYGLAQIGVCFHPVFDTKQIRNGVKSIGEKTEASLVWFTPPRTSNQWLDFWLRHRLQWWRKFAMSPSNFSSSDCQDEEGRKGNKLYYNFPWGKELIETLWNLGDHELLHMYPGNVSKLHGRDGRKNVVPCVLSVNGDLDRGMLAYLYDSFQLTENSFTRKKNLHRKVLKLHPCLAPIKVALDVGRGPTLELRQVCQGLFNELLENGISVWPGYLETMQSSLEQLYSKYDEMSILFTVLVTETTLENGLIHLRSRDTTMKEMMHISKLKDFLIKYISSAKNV

B1: 24-nt/28-nt primer/template, ddC-terminated primer (crystal) (dsDNA)
DNA 1: CGAAAACGACGGCCAGTGCCATAC
DNA 2: CGAGGTATGGCACTGGCCGTCGTTTTCG
modifications: 2',3'-dideoxyC at primer 3' end (position 24 of strand 1)
  binding result: binds
